Read-outs that look alike come from different tables or passages of the source.
What was measured:
4H2389-AA = target: T1, 4H2389-AA; test: two-hybrid library CCmax; details: mean of both orientations;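 further: natural log of median RNA to DNA barcode read ratio; higher means stronger binding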
T1 chain: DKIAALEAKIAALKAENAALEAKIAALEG

4H3009-AA = target: T2, 4H3009-AA; test: two-hybrid library CCmax; details: mean of both orientations;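 further: natural log of median RNA to DNA barcode read ratio; higher means stronger binding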
T2 chain: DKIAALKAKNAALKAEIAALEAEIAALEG

4H310-AA = target: T3, 4H310-AA; test: two-hybrid library CCmax; details: mean of both orientations;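 further: natural log of median RNA to DNA barcode read ratio; higher means stronger binding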
T3 chain: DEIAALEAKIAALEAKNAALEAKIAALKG

4H3753-AA = target: T4, 4H3753-AA; test: two-hybrid library CCmax; details: mean of both orientations;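 further: natural log of median RNA to DNA barcode read ratio; higher means stronger binding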
T4 chain: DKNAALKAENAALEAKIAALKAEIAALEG

4H3395-AA = target: T5, 4H3395-AA; test: two-hybrid library CCmax; details: mean of both orientations
T5 chain: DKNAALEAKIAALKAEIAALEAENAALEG

4H2649-AA = target: T6, 4H2649-AA; test: two-hybrid library CCmax; details: mean of both orientations
T6 chain: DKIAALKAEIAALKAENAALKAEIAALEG

4H3410-AA = target: T7, 4H3410-AA; test: two-hybrid library CCmax; details: mean of both orientations
T7 chain: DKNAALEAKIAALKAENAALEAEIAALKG

4H2725-AA = target: T8, 4H2725-AA; test: two-hybrid library CCmax; details: mean of both orientations
T8 chain: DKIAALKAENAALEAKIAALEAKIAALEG

4H3165-AA = target: T9, 4H3165-AA; test: two-hybrid library CCmax; details: mean of both orientations
T9 chain: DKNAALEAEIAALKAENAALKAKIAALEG

4H570-AA = target: T10, 4H570-AA; test: two-hybrid library CCmax; details: mean of both orientations
T10 chain: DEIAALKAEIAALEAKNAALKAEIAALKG

4H536-AA = target: T11, 4H536-AA; test: two-hybrid library CCmax; details: mean of both orientations
T11 chain: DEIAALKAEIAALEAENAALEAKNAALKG

4H2473-AA = target: T12, 4H2473-AA; test: two-hybrid library CCmax; details: mean of both orientations
T12 chain: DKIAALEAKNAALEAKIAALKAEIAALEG

4H3590-AA = target: T13, 4H3590-AA; test: two-hybrid library CCmax; details: mean of both orientations
T13 chain: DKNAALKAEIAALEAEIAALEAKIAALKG

4H3130-AA = target: T14, 4H3130-AA; test: two-hybrid library CCmax; details: mean of both orientations
T14 chain: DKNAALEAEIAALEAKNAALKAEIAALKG

4H3120-AA = target: T15, 4H3120-AA; test: two-hybrid library CCmax; details: mean of both orientations
T15 chain: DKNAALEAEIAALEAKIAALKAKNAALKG

4H2330-AA = target: T16, 4H2330-AA; test: two-hybrid library CCmax; details: mean of both orientations
T16 chain: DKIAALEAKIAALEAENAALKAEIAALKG

4H2865-AA = target: T17, 4H2865-AA; test: two-hybrid library CCmax; details: mean of both orientations
T17 chain: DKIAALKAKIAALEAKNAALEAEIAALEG

4H3016-AA = target: T18, 4H3016-AA; test: two-hybrid library CCmax; details: mean of both orientations
T18 chain: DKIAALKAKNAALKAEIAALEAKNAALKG

4H2698-AA = target: T19, 4H2698-AA; test: two-hybrid library CCmax; details: mean of both orientations
T19 chain: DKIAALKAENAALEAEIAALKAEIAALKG

4H3865-AA = target: T20, 4H3865-AA; test: two-hybrid library CCmax; details: mean of both orientations
T20 chain: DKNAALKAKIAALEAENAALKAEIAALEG

4H710-AA = target: T21, 4H710-AA; test: two-hybrid library CCmax; details: mean of both orientations
T21 chain: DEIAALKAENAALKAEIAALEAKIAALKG

4H2274-AA = target: T22, 4H2274-AA; test: two-hybrid library CCmax; details: mean of both orientations
T22 chain: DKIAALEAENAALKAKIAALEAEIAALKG

4H797-AA = target: T23, 4H797-AA; test: two-hybrid library CCmax; details: mean of both orientations
T23 chain: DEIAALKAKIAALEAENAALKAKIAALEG

4H485-AA = target: T24, 4H485-AA; test: two-hybrid library CCmax; details: mean of both orientations
T24 chain: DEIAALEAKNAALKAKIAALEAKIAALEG

4H3697-AA = target: T25, 4H3697-AA; test: two-hybrid library CCmax; details: mean of both orientations
T25 chain: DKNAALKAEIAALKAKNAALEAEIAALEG

4H850-AA = target: T26, 4H850-AA; test: two-hybrid library CCmax; details: mean of both orientations
T26 chain: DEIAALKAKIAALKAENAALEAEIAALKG

4H2109-AA = target: T27, 4H2109-AA; test: two-hybrid library CCmax; details: mean of both orientations
T27 chain: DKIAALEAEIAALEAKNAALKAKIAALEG

4H94-AA = target: T28, 4H94-AA; test: two-hybrid library CCmax; details: mean of both orientations
T28 chain: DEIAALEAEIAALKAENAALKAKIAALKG

4H629-AA = target: T29, 4H629-AA; test: two-hybrid library CCmax; details: mean of both orientations
T29 chain: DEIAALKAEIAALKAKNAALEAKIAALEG

4H2162-AA = target: T30, 4H2162-AA; test: two-hybrid library CCmax; details: mean of both orientations
T30 chain: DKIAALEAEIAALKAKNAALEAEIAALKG

4H3381-AA = target: T31, 4H3381-AA; test: two-hybrid library CCmax
T31 chain: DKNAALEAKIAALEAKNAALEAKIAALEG

4H458-AA = target: T32, 4H458-AA; test: two-hybrid library CCmax; details: mean of both orientations
T32 chain: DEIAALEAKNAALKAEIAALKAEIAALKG

4H909-AA = target: T33, 4H909-AA; test: two-hybrid library CCmax; details: mean of both orientations
T33 chain: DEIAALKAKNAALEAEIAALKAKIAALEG

4H930-AA = target: T34, 4H930-AA; test: two-hybrid library CCmax; details: mean of both orientations
T34 chain: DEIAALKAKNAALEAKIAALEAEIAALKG

4H745-AA = target: T35, 4H745-AA; test: two-hybrid library CCmax; details: mean of both orientations
T35 chain: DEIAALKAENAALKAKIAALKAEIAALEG

4H2253-AA = target: T36, 4H2253-AA; test: two-hybrid library CCmax; details: mean of both orientations
T36 chain: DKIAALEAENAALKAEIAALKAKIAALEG

4H891-AA = target: T37, 4H891-AA; test: two-hybrid library CCmax; details: mean of both orientations
T37 chain: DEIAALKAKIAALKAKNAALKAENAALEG

4H2438-AA = target: T38, 4H2438-AA; test: two-hybrid library CCmax; details: mean of both orientations
T38 chain: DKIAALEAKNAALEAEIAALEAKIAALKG

4H1877-AA = target: T39, 4H1877-AA; test: two-hybrid library CCmax
T39 chain: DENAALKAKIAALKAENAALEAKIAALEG

4H607-bA = target: T40, 4H607-bA; test: two-hybrid library CCNG1
T40 chain: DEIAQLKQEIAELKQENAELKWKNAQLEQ

4H72-bA = target: T41, 4H72-bA; test: two-hybrid library CCNG1
T41 chain: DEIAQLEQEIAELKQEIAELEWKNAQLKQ

4H3189-bA = target: T42, 4H3189-bA; test: two-hybrid library CCNG1
T42 chain: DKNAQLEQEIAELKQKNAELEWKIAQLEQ

4H568-bA = target: T43, 4H568-bA; test: two-hybrid library CCNG1
T43 chain: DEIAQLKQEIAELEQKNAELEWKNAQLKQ

4H3606-bA = target: T44, 4H3606-bA; test: two-hybrid library CCNG1
T44 chain: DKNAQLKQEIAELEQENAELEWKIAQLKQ

4H462-bA = target: T45, 4H462-bA; test: two-hybrid library CCNG1
T45 chain: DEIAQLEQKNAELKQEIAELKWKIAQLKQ

4H331-bA = target: T46, 4H331-bA; test: two-hybrid library CCNG1
T46 chain: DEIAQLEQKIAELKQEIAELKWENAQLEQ

4H3782-bA = target: T47, 4H3782-bA; test: two-hybrid library CCNG1
T47 chain: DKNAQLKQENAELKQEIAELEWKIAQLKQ

4H370-bA = target: T48, 4H370-bA; test: two-hybrid library CCNG1
T48 chain: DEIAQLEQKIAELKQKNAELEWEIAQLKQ

4H967-bA = target: T49, 4H967-bA; test: two-hybrid library CCNG1
T49 chain: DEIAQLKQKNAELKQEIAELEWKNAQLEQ

4H3843-bA = target: T50, 4H3843-bA; test: two-hybrid library CCNG1
T50 chain: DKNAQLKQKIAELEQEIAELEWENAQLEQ

4H918-bA = target: T51, 4H918-bA; test: two-hybrid library CCNG1
T51 chain: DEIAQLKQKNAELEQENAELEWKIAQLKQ

4H687-bA = target: T52, 4H687-bA; test: two-hybrid library CCNG1
T52 chain: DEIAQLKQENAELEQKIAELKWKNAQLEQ

4H797-bA = target: T53, 4H797-bA; test: two-hybrid library CCNG1
T53 chain: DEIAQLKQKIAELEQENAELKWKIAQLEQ

4H953-bA = target: T54, 4H953-bA; test: two-hybrid library CCNG1
T54 chain: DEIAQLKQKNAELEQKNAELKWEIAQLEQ

4H883-bA = target: T55, 4H883-bA; test: two-hybrid library CCNG1
T55 chain: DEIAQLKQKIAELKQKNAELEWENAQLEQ

4H4001-bA = target: T56, 4H4001-bA; test: two-hybrid library CCNG1
T56 chain: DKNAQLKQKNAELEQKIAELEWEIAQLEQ

## DENAALKAKIAALKAENAALEAKIAALEG [4H1877-AA]
4H2389-AA
  interaction score: -1.07
4H3009-AA
  interaction score: 1.03
4H310-AA
  interaction score: -0.467
4H3753-AA
  interaction score: -1.7
4H3395-AA
  interaction score: -1.77
4H2649-AA
  interaction score: -0.409
4H3410-AA
  interaction score: -1.43
4H2725-AA
  interaction score: -0.897
4H3165-AA
  interaction score: 0.715
4H570-AA
  interaction score: 1.9
4H536-AA
  interaction score: -0.101
4H2473-AA
  interaction score: -1.47
4H3590-AA
  interaction score: -0.565
4H3130-AA
  interaction score: 1.82
4H3120-AA
  interaction score: -1.28
4H2330-AA
  interaction score: -1.51
4H2865-AA
  interaction score: -0.796
4H3016-AA
  interaction score: 0.714
4H2698-AA
  interaction score: -1.45
4H3865-AA
  interaction score: 0.523
4H710-AA
  interaction score: -0.752
4H2274-AA
  interaction score: -1.35
4H797-AA
  interaction score: 0.589
4H485-AA
  interaction score: 0.957
4H3697-AA
  interaction score: -0.0749
4H850-AA
  interaction score: -1.25
4H2109-AA
  interaction score: 1.92
4H94-AA
  interaction score: 1.3
4H629-AA
  interaction score: -0.167
4H2162-AA
  interaction score: -1.25
4H3381-AA
  interaction score: -0.523
4H458-AA
  interaction score: -0.933
4H909-AA
  interaction score: -1.84
4H930-AA
  interaction score: -1.46
4H745-AA
  interaction score: -1.08
4H2253-AA
  interaction score: -1.17
4H891-AA
  interaction score: -1.36
4H2438-AA
  interaction score: -1.24
4H1877-AA
  interaction score: 0.288

## DKNAQLEQEIAELKQKNAELEWKIAQLEQ [4H3189-bA]
4H607-bA
  interaction score: -1.11
4H72-bA
  interaction score: -1.18
4H3189-bA
  interaction score: 0.465
4H568-bA
  interaction score: -1.19
4H3606-bA
  interaction score: -0.875
4H462-bA
  interaction score: -1.62
4H331-bA
  interaction score: -1.26
4H3782-bA
  interaction score: -0.906
4H370-bA
  interaction score: -0.547
4H967-bA
  interaction score: -1.1
4H3843-bA
  interaction score: -1.24
4H918-bA
  interaction score: -1.44
4H687-bA
  interaction score: -0.444
4H797-bA
  interaction score: -1.42
4H953-bA
  interaction score: -1.34
4H883-bA
  interaction score: -1.22
4H4001-bA
  interaction score: -0.765

## DKNAQLKQEIAELEQENAELEWKIAQLKQ [4H3606-bA]
4H607-bA
  interaction score: -0.936
4H72-bA
  interaction score: -2.04
4H568-bA
  interaction score: -0.435
4H3606-bA; mean of both orientations
  interaction score: -0.112
4H462-bA
  interaction score: -1.18
4H3782-bA
  interaction score: 0.289
4H370-bA
  interaction score: 1.25
4H967-bA
  interaction score: 0.947
4H3843-bA
  interaction score: -0.812
4H918-bA
  interaction score: -0.427
4H687-bA
  interaction score: -0.711
4H797-bA
  interaction score: -1.09
4H953-bA
  interaction score: 0.309
4H883-bA
  interaction score: 0.708
4H4001-bA
  interaction score: -0.523

Source: paper PMC10397247
